In the supplement of paper PMC10567573:

B1: SFRS1 (parent)
chain: YSPRRSRGSPRYSPRHSRSRSRT
B2: TPD52L2 (parent)
chain: EAEEEELRAELTKVEEEIVTLRQV

Variants of: B1
Experiment: protein stability index of a GFP-peptide fusion (GPS, HEK-293T) (PSI 1-6); higher = more stable
Conditions: c terminus: native
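Note: lentivirally expressed fusions sorted by FACS into six bins by GFP to DsRed ratio, PSI derived from sequencing read proportions per bin multiplied by bin number.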

Protein stability index: each site, then its substitutions
P10: M 3.73 | N 4.31 | Q 3 | R 4.2 | S 4.35 | T 4.51 | V 3.69 | W 3.4 | Y 3.67
R11: A 3.25 | C 2.36 | D 2.31 | E 2.39 | F 2.8 | G 3.5 | H 3.22 | I 2.73 | K 3.85 | L 2.85 | M 3.47 | N 3.98 | P 3.44 | Q 4.39 | S 3.3 | T 3.29 | V 3.05 | W 1.79 | Y 2.54
Y12: A 3.89 | C 3.61 | D 4.38 | E 4.47 | F 3.7 | H 3.28 | I 3.72 | K 3.73 | L 4.03 | M 3.62 | N 4.21 | P 3.99 | Q 4.43 | R 4.25 | S 4.17 | T 4.27 | V 4.18 | W 4.43
S13: A 3.41 | C 1.35 | D 3.72 | E 4.01 | F 3.59 | G 4.41 | H 3.62 | I 3.71 | K 4.64 | L 3.89 | M 3.82 | N 3.64 | P 3.55 | Q 3.76 | R 4.11 | T 3.63 | V 3.37 | W 2.9 | Y 3.13
P14: A 4.03 | C 1.97 | D 3.46 | E 4.04 | F 3.21 | G 4.46 | H 4.16 | I 4.15 | K 4.57 | L 3.56 | M 3.52 | N 4.28 | R 4.48 | S 3.54 | T 3.89 | V 4.03 | W 3.22 | Y 3.64
R15: A 3.36 | C 2.64 | D 3.16 | E 3.56 | F 2.17 | G 3.9 | H 4.39 | I 3.05 | K 3.98 | L 3 | M 3.48 | N 3.34 | P 2.12 | Q 3.39 | S 3.82 | T 2.58 | V 2.65 | Y 3.06
H16: A 4.81 | C 3.96 | D 4.05 | E 3.47 | F 3.83 | G 4.31 | I 3.95 | K 4.35 | L 4.35 | M 3.95 | N 4.1 | P 4.35 | Q 4.02 | R 4.5 | S 4.5 | T 4.27 | V 3.93 | W 3.14 | Y 4.45
S17: A 4.15 | C 4 | D 3.75 | E 3.9 | F 4.13 | G 3.53 | H 3.77 | I 4.04 | K 4.35 | L 3.69 | M 4.06 | N 3.81 | P 4.19 | Q 4 | R 4.49 | T 4.05 | V 3.73 | W 3.69 | Y 3.6
R18: A 3.64 | C 2.61 | D 2.77 | E 2.44 | F 2.42 | G 3.27 | H 3.28 | I 3.43 | K 2.94 | L 3.44 | M 2.87 | N 3.5 | P 2.52 | Q 3.27 | S 2.9 | T 3.46 | V 3.68 | W 2.93 | Y 3.07
S19: A 2.98 | C 3.71 | D 3.75 | E 3.14 | F 3.75 | G 3.95 | H 3.89 | I 3.8 | K 3.88 | L 3.79 | M 2.9 | N 4.23 | P 4.39 | Q 3.89 | R 3.55 | T 3.68 | V 3.73 | W 3.76 | Y 3.96
R20: A 3.68 | C 3.49 | D 4.36 | E 4.48 | F 2.71 | G 3.79 | H 4.12 | I 3.69 | K 3.85 | L 4.08 | M 3.4 | N 4.44 | P 3.81 | Q 4.04 | S 4.21 | T 3.6 | V 3.66 | W 1.77 | Y 2.9
S21: A 3.41 | C 3.06 | D 3.79 | E 3.8 | F 3.95 | G 2.67 | H 3.79 | I 3.28 | K 3.79 | L 3.23 | M 3.94 | N 3.98 | P 4.3 | Q 3.62 | R 4.2 | T 3.34 | V 3.49 | W 4.19 | Y 4
R22: A 2.02 | C 3.62 | D 3.85 | E 4.25 | F 3.58 | G 3.27 | H 4.14 | I 3.8 | K 3.77 | L 4.25 | M 3.8 | N 3.46 | P 4.04 | Q 4.06 | S 3.5 | T 3.97 | V 4.05 | W 3.32 | Y 3.9
T23: C 3.5 | D 3.32 | E 4.56 | F 4.22 | H 2.64 | I 4.04 | K 4.73 | L 1.96 | M 3.33 | N 3.17 | P 4.23 | Q 2.61 | R 4.22 | S 3.4 | V 3.69 | W 3.79 | Y 4.44

Variants of: B2
Experiment: as above
Conditions: c terminus: a fixed tail appended

Protein stability index, by site and new letter:
E1: A 3.63 | C 2.89 | D 3.74 | F 2 | G 3.02 | H 3.07 | I 1.94 | K 3.06 | L 2.57 | M 2.53 | N 2.5 | P 3.43 | Q 3.76 | R 2.63 | S 2.97 | T 2.79 | V 3.58 | W 2.01 | Y 3.35
A2: C 3.17 | D 4.7 | E 4.6 | F 3.45 | G 4.06 | H 3.23 | I 2.67 | K 3.04 | L 2.93 | M 2.8 | N 4.25 | P 4.03 | Q 4.57 | R 3.29 | S 3.42 | T 2.8 | V 3.3 | W 2.88 | Y 3.1
E3: A 3.04 | C 2.65 | D 4.29 | F 2.45 | G 3.52 | H 3.08 | I 2.79 | K 3.18 | L 2.76 | M 2.71 | N 3.1 | P 2.92 | Q 2.73 | R 3.04 | S 3.63 | T 2.83 | V 3.22 | W 3.43 | Y 2.86
E4: A 3.77 | C 2.93 | D 3.89 | F 2.79 | G 3.23 | H 3.21 | I 3.73 | K 4.13 | L 3.81 | M 3.42 | N 4.34 | P 3.68 | Q 4.02 | R 3.76 | S 3.41 | T 3.75 | V 3.63 | W 2.93 | Y 2.25
E5: A 2.3 | C 2.46 | D 3.91 | F 2.34 | G 2.97 | H 2.44 | I 2.98
